Laboratory results as given in the supplement of paper PMC7125110.
± gives the standard error. Fewer inactive variants are shown than the library holds.

B1: glmS ribozyme (parent)
chain: AUAAAAGCGCCAGAACUACAGAAAUGUAGUUGACGAGGAGGAGGUUUAUCGAAUUUUCGGCGGAUGCCUCCAAA

Tests used:
Conditions in all cases: with glucosamine-6-phosphate
[1] = variants of: B1; assay: self-cleavage kobs at 40 uM GlcN6P; higher = faster cleavage; RNA array
Outline: (§1)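 Glucosamine-6-phosphate in HEPES/KCl/Mg(OAc)2 buffer, at 40 μM to 10 mM, was flowed over barcoded ribozyme variants transcribed in situ by E. coli RNA polymerase on sequenced MiSeq chips. Tracking was through a hybridised Cy3 probe at 37 °C. kobs, kcat and KM came from exponential decay fits and weighted Michaelis–Menten fits of normalised per-tile medians.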

[2] = variants of: B1; assay: self-cleavage kobs at 160 uM GlcN6P; higher = faster cleavage; RNA array
Outline: as §1

[3] = variants of: B1; assay: self-cleavage kobs at 640 uM GlcN6P; higher = faster cleavage; RNA array
Outline: as §1

[4] = variants of: B1; assay: self-cleavage kobs at 10000 uM GlcN6P; higher = faster cleavage; RNA array
Outline: as §1

[5] = variants of: B1; assay: self-cleavage kobs at 2500 uM GlcN6P; higher = faster cleavage; RNA array
Outline: as §1

Variant | self-cleavage kobs at 40 uM GlcN6P [1] [s⁻¹] | self-cleavage kobs at 160 uM GlcN6P [2] [s⁻¹] | self-cleavage kobs at 640 uM GlcN6P [3] [s⁻¹] | self-cleavage kobs at 10000 uM GlcN6P [4] [s⁻¹] | self-cleavage kobs at 2500 uM GlcN6P [5] [s⁻¹]
G51C G59U | < 1e-05 | < 1e-05 | < 1e-05 |  | 
G7U A48U G60C | < 1e-05 |  |  |  | 
C16A C50G C68U | 0.000143 ± 3.6e-05 |  |  | 0.000227 ± 6.2e-05 | 
G13A C50G C58A C70U | 6.62e-05 ± 1.6e-05 |  |  | 9.7e-05 ± 2.5e-05 | 0.000539 ± 6.7e-05
G13C C16U G63A | < 1e-05 |  |  |  | 
A14G U54C U69C | 0.000416 ± 9.9e-05 |  | 0.0011 ± 0.00044 | 0.0047 ± 0.0013 | 0.000161 ± 5.8e-05
G13U C16U C19A G40U | < 1e-05 | < 1e-05 | < 1e-05 | < 1e-05 | 
C34G C50G G59A C67G | 3.78e-05 ± 1.8e-05 | 0.000158 ± 3.7e-05 |  |  | 0.000115 ± 2.3e-05
C10A G13A U56C | < 1e-05 |  |  |  | 
G7A G9U C16A G37U U65C | < 1e-05 |  |  |  | 
U45A C70U | 0.00112 ± 0.00012 | 0.00187 ± 0.00068 | 0.00199 ± 0.00047 | 0.0102 ± 0.0018 | 0.0203 ± 0.0092
G32U A36C A53U U54A G63U | < 1e-05 |  |  | < 1e-05 | 
G13C U46G | < 1e-05 | < 1e-05 | < 1e-05 |  | 
G9C U49A | < 1e-05 |  | < 1e-05 | < 1e-05 | < 1e-05
U31C G44A C71U | < 1e-05 | < 1e-05 | < 1e-05 |  | 
G44A C70A | < 1e-05 | < 1e-05 |  | < 1e-05 | < 1e-05
G41C C58U G59C | < 1e-05 |  |  |  | 
C10G A33U C67G | < 1e-05 |  |  |  | 
C10G U47A G60U C61U | < 1e-05 |  |  |  | 
C11A C34U G63C | < 1e-05 |  | < 1e-05 |  | < 1e-05
C16U G41U A53U | 3.27e-05 ± 1.6e-05 |  |  | 0.00071 ± 0.00015 | 
G7U A33U A64G C70G | < 1e-05 |  |  |  | 
A6G A12U C61U | < 1e-05 |  |  | < 1e-05 | 
C11G C16G | < 1e-05 | < 1e-05 |  | < 1e-05 | < 1e-05
A42G G63A U69G | < 1e-05 |  |  | < 1e-05 | 
G32A U55G | 4.93e-05 ± 1.7e-05 |  | 0.000327 ± 5.7e-05 | 0.00326 ± 0.00054 | 0.000627 ± 0.00014
